Test results published in US20220380739.
Residue numbers refer to the chain shown, from its start. In names and notes the source's numbering stands.

T1: Abz-VDVADGA-Dap (Dnp)
T1 chain: VDVADGA

T2: Abz-VDVADVA-Dap (Dnp)
T2 chain: VDVADVA

T3: Abz-VDVADQA-Dap (Dnp)
T3 chain: VDVADQA

T4: Abz-VDVADFA-Dap (Dnp)
T4 chain: VDVADFA

T5: Abz-VDVADYA-Dap (Dnp)
T5 chain: VDVADYA

T6: Abz-VDVADHA-Dap (Dnp)
T6 chain: VDVADHA

T7: Abz-VDVADKA-Dap (Dnp)
T7 chain: VDVADKA

T8: Abz-VDVADMA-Dap (Dnp)
T8 chain: VDVADMA

T9: Abz-VDVADPA-Dap (Dnp)
T9 chain: VDVADPA

T10: Abz-VDVADTA-Dap (Dnp)
T10 chain: VDVADTA

T11: Abz-VDVADIA-Dap (Dnp)
T11 chain: VDVADIA

T12: Abz-VDVADRA-Dap (Dnp)
T12 chain: VDVADRA

T13: Abz-VDVADEA-Dap (Dnp)
T13 chain: VDVADEA

T14: Abz-VDVADAA-Dap (Dnp)
T14 chain: VDVADAA

T15: Abz-VDVADDA-Dap (Dnp)
T15 chain: VDVADDA

T16: Abz-VDVADSA-Dap (Dnp)
T16 chain: VDVADSA

T17: Abz-VDVADWA-Dap (Dnp)
T17 chain: VDVADWA

T18: Abz-VDVADNA-Dap (Dnp)
T18 chain: VDVADNA

T19: Abz-VDVADLA-Dap (Dnp)
T19 chain: VDVADLA

T20: Abz-VDVADCA-Dap (Dnp)
T20 chain: VDVADCA

B1: Caspase-2 (human), recombinant, active, Enzo Life Sciences (protein)
chain: GPVCLQVKPCTPEFYQTHFQLAYRLQSRPRGLALVLSNVHFTGEKELEFRSGGDVDHSTLVTLFKLLGYDVHVLCDQTAQEMQEKLQNFAQLPAHRVTDSCIVALLSHGVEGAIYGVDGKLLQLQEVFQLFDNANCPSLQNKPKMFFIQACRGDETDRGVDQQDGKNHAGSPGCEESDAGKEKLPKMRLPTRSDMICGYACLKGTAAMRNTKRGSWYIEALAQVFSERACDMHVADMLVKVNALIKDREGYAPGTEFHRCKEMSEYCSTLCRHLYLFPGHPPT
B2: wt caspase-2 (human, produced in E. coli with poly-his-tag) (protein)
chain: GPVCLQVKPCTPEFYQTHFQLAYRLQSRPRGLALVLSNVHFTGEKELEFRSGGDVDHSTLVTLFKLLGYDVHVLCDQTAQEMQEKLQNFAQLPAHRVTDSCIVALLSHGVEGAIYGVDGKLLQLQEVFQLFDNANCPSLQNKPKMFFIQACRGDETDRGVDQQDGKNHAGSPGCEESDAGKEKLPKMRLPTRSDMICGYACLKGTAAMRNTKRGSWYIEALAQVFSERACDMHVADMLVKVNALIKDREGYAPGTEFHRCKEMSEYCSTLCRHLYLFPGHPPTHHHHHH
B3: T7AC_6H_mS9ProE (protein)
chain: MLEDPERNKERKEAELQAQTAEQHHHHHHGKNHAGSPGCEESAAGKEKLPKMRLPTRSDMICGYACLKGTAAMRNTKRGSWYIEALAQVFSERACDMHVADMLVKVNALIKDREGYAPGTEFHRCKVMSEYCSTLCRHLYLFPGHPPTGSGPVCLQVKPCTPEFYQTHFQLAYRLQSRPRGLALVLSNVHFTDEKELEFRSGGDVDHSTLVTLFKLLGYDVHVLCDQTAQEMQEKLQNFAQLPAHRGTDSCIVALLSHGVEGAIYGVDGKLLQLQEVFQLFDNANCPSLQNKPKMFFIQACRGEETERGVDQQD
B4: T7AC_6H_mS9ProD (protein)
chain: B3 chain with E307D
B5: T7AC_6H_cpCasp2D (protein)
chain: B3 chain with V127E, D193G, G247V, E304D, E307D
B6: 6H_cpCasp2_S9_E105V (protein)
chain: MHHHHHHGKNHAGSPGCEESAAGKEKLPKMRLPTRSDMICGYACLKGTAAMRNTKRGSWYIEALAQVFSERACDMHVADMLVKVNALIKDREGYAPGTEFHRCKVMSEYCSTLCRHLYLFPGHPPTGSGPVCLQVKPCTPEFYQTHFQLAYRLQSRPRGLALVLSNVHFTGEKELEFRSGGDVDHSTLVTLFKLLGYDVHVLCDQTAQEMQEKLQNFAQLPAHRVTDSCIVALLSHGVEGAIYGVDGKLLQLQEVFQLFDNANCPSLQNKPKMFFIQACRGDETDRGVDQQD
B7: 6H_cpCasp2_G171D (protein)
chain: B6 chain with V105E, G171D
B8: cp caspase-2 (6H_cpCasp2D) (protein)
chain: B6 chain with V105E
B9: T7AC-6H-cpCasp2_sar (protein)
chain: MLEDPERNKERKEAELQAQTAEQHHHHHHGKEHMASPGCEQSAAGKEKILKMRLPTRSDMICGYACLKGTAAMRNTKRGSWYIEALTQVFSERARDMHVADMLVKVNALIKDREGYAPGTEFHRCKEMSEYSSTLCRHLYLFPGHPPTGSGPPSLQVKPCTSEFYRTHHHLAYRLQSRPRGLALVLSNVHFNGEKDLEFRSGGDVDHSSLVTLFKLLDYDVHVLRDQTAQEMYEKLQRFAQLSTHQNTDSCVVALLSHGIEGGIYGVDGQLLQLQEVFQLFDNANCPNLQNKPKMFFIQACRGDETDRGVDLRD
B10: T7AC-6H-cpCasp2_sar_E105V, E172V (protein)
chain: B9 chain with E127V, E194V

Experiments:
Abz-VDVADGA-Dap (Dnp) = biological target: T1, Abz-VDVADGA-Dap (Dnp)
Abz-VDVADVA-Dap (Dnp) = biological target: T2, Abz-VDVADVA-Dap (Dnp)
Abz-VDVADQA-Dap (Dnp) = biological target: T3, Abz-VDVADQA-Dap (Dnp)
Abz-VDVADFA-Dap (Dnp) = biological target: T4, Abz-VDVADFA-Dap (Dnp)
Abz-VDVADYA-Dap (Dnp) = biological target: T5, Abz-VDVADYA-Dap (Dnp)
Abz-VDVADHA-Dap (Dnp) = biological target: T6, Abz-VDVADHA-Dap (Dnp)
Abz-VDVADKA-Dap (Dnp) = biological target: T7, Abz-VDVADKA-Dap (Dnp)
Abz-VDVADMA-Dap (Dnp) = biological target: T8, Abz-VDVADMA-Dap (Dnp)
Abz-VDVADPA-Dap (Dnp) = biological target: T9, Abz-VDVADPA-Dap (Dnp)
Abz-VDVADTA-Dap (Dnp) = biological target: T10, Abz-VDVADTA-Dap (Dnp)
Abz-VDVADIA-Dap (Dnp) = biological target: T11, Abz-VDVADIA-Dap (Dnp)
Abz-VDVADRA-Dap (Dnp) = biological target: T12, Abz-VDVADRA-Dap (Dnp)
Abz-VDVADEA-Dap (Dnp) = biological target: T13, Abz-VDVADEA-Dap (Dnp)
Abz-VDVADAA-Dap (Dnp) = biological target: T14, Abz-VDVADAA-Dap (Dnp)
Abz-VDVADDA-Dap (Dnp) = biological target: T15, Abz-VDVADDA-Dap (Dnp)
Abz-VDVADSA-Dap (Dnp) = biological target: T16, Abz-VDVADSA-Dap (Dnp)
Abz-VDVADWA-Dap (Dnp) = biological target: T17, Abz-VDVADWA-Dap (Dnp)
Abz-VDVADNA-Dap (Dnp) = biological target: T18, Abz-VDVADNA-Dap (Dnp)
Abz-VDVADLA-Dap (Dnp) = biological target: T19, Abz-VDVADLA-Dap (Dnp)
[1] = biological target: T7AC_6H_GSGSGSG_VDVAD-hFGF2
Abz-VDVADCA-Dap (Dnp) = biological target: T20, Abz-VDVADCA-Dap (Dnp)

6H-GSG-VDVAD-TNFalpha, sequence (chain, as listed by the source): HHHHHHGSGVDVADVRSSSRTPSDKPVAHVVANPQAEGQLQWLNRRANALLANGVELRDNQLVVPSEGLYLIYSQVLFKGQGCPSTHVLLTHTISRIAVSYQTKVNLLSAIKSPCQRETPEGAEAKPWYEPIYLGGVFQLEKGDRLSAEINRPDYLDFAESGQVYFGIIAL

Protein	KM (Abz-VDVADGA-Dap (Dnp))	KM (Abz-VDVADVA-Dap (Dnp))	KM (Abz-VDVADQA-Dap (Dnp))	KM (Abz-VDVADFA-Dap (Dnp))	KM (Abz-VDVADYA-Dap (Dnp))	KM (Abz-VDVADHA-Dap (Dnp))	KM (Abz-VDVADKA-Dap (Dnp))	KM (Abz-VDVADMA-Dap (Dnp))	KM (Abz-VDVADPA-Dap (Dnp))	KM (Abz-VDVADTA-Dap (Dnp))	KM (Abz-VDVADIA-Dap (Dnp))	KM (Abz-VDVADRA-Dap (Dnp))	KM (Abz-VDVADEA-Dap (Dnp))	KM (Abz-VDVADAA-Dap (Dnp))	KM (Abz-VDVADDA-Dap (Dnp))	KM (T7AC-6H-GSG-VDVAD-hFGF-2)	KM (Abz-VDVADSA-Dap (Dnp))	KM (Abz-VDVADWA-Dap (Dnp))	KM (Abz-VDVADNA-Dap (Dnp))	KM (Abz-VDVADLA-Dap (Dnp))	other results
B1																					cleavage of DEVD-E2 compared with VDVAD-E2 (DEVD-E2): cleaved DEVD-E2 only 44 times slower than VDVAD-E2
B2	97 µM	86 µM	110 µM	79 µM																	
B3	43 µM	90 µM	120 µM	80 µM	420 µM	160 µM	92 µM	370 µM	120 µM	100 µM	130 µM	68 µM	110 µM	110 µM	150 µM	298 µM	120 µM	56 µM	120 µM	410 µM	KM (6H-GSG-VDVAD-TNFalpha): 520 µM
B4	65 µM	100 µM	120 µM	120 µM	900 µM	170 µM	79 µM	480 µM	100 µM	120 µM	110 µM	47 µM	160 µM	100 µM	190 µM	329 µM	180 µM	53 µM	130 µM	400 µM	KM (T7AC-6H-VDVAD-hFGF2): 529 µM; KM (T7AC_6H_GSG_VDSAD-hFGF2): 865 µM; KM [1]: 252 µM
B5					300 µM	110 µM	110 µM	340 µM	150 µM	89 µM	62 µM	56 µM	200 µM	120 µM	180 µM	881 µM	130 µM	36 µM	87 µM	160 µM	KM (6H-GSG-VDVAD-TNFalpha): 280 µM
B6	57 µM	81 µM	130 µM	77 µM	340 µM	160 µM	97 µM	830 µM	250 µM	150 µM	70 µM	48 µM	180 µM	110 µM	200 µM		200 µM	51 µM	100 µM	300 µM	
B7	75 µM	96 µM	160 µM	86 µM	350 µM	170 µM	94 µM	610 µM	390 µM	140 µM	78 µM	65 µM	210 µM	120 µM	150 µM		220 µM	56 µM	110 µM	300 µM	
B8	110 µM	64 µM	120 µM	60 µM	340 µM	120 µM	120 µM	380 µM	300 µM	75 µM	71 µM	58 µM	170 µM	89 µM	160 µM	639 µM	200 µM	46 µM	78 µM	290 µM	cleavage of DEVD-E2 compared with VDVAD-E2 (DEVD-E2): processed 140 times slower than VDVAD-E2; KM (Abz-VDVADCA-Dap (Dnp)): 38 µM
B9	48 µM	34 µM	94 µM	44 µM																	
B10	31 µM	69 µM	120 µM	52 µM																	
